The labels stand for the following.
B1: MAGEA6 (parent)
chain: KISGGPRISYPLLHEWALREGEE
B2: SLC35F2 (parent)
chain: SFMPLVIKVTSATSVNLGILTADL
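Note: lentivirally expressed fusions sorted by FACS into six bins by GFP to DsRed ratio, PSI derived from sequencing read proportions per bin multiplied by bin number.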

The first data set covers variants of B1. Description: protein stability index of a GFP-peptide fusion (GPS, HEK-293T) (PSI 1-6); higher = more stable. The settings on record: c terminus: native.
Regarding KISWGPRISYPLLHEWALREGEE, the protein stability index turned out to be 2.78.

As for KISVGPRISYPLLHEWALREGEE, the protein stability index stood at 1.61.

In the case of KISCGPRISYPLLHEWALREGEE, the protein stability index is 3.34.

On to KISSGPRISYPLLHEWALREGEE, for which the protein stability index amounted to 5.95.

KISPGPRISYPLLHEWALREGEE: the protein stability index was determined as 5.66.

Regarding KISGGPRCSYPLLHEWALREGEE, the protein stability index came out at 2.79.

Regarding KISGGPRPSYPLLHEWALREGEE, the protein stability index was found to be 2.24.

For KISGGPRGSYPLLHEWALREGEE, the protein stability index worked out at 3.28.

Take KISGGPRMSYPLLHEWALREGEE: the protein stability index was determined as 2.

For the variant KCSGGPRISYPLLHEWALREGEE, the protein stability index was found to be 2.55.

On to KISGGPRISYPLLHEWATREGEE, for which the protein stability index was determined as 2.04.

As for KISGGPRISYPLLHEWAIREGEE, the protein stability index is 2.98.

For KISGGPRISYPLLHEWANREGEE, the protein stability index is 2.16.

As to KISGGPRISYPLLHEWAKREGEE, the protein stability index is 2.72.

Take KISGGPRISYPLLHEWASREGEE: the protein stability index came to 2.31.

Turning to KISGGPRISYPLLHEWALREYEE, the protein stability index stood at 2.4.

On to KISGGPRISYPLLHEWALREDEE, for which the protein stability index was determined as 4.14.

Turning to KISGGPRISYPLLHEWALREKEE, the protein stability index came to 3.31.

KISGGPRISYPLLPEWALREGEE: the protein stability index amounted to 3.11.

For the variant KISGGPRISYPLNHEWALREGEE, the protein stability index was 2.95.

On to KISGGPRISYPLYHEWALREGEE, for which the protein stability index stood at 1.19.

Take KISGGPRISYPLMHEWALREGEE: the protein stability index came out at 1.77.

KISGGPRISYPLQHEWALREGEE: the protein stability index amounted to 2.27.

Variants of B2 are the subject of another data set. Described as above. The settings on record: c terminus: a fixed tail appended.
Regarding SFMPLVIKVTSATSVNLGILTAKL, the protein stability index amounted to 1.8.

Turning to SFMPLVIKVTSATSVNLGILTAPL, the protein stability index amounted to 2.65.

SFMPLVIKVTSATSVNLGILTAQL: the protein stability index is 3.39.

In the case of SFMPLVIKVTSATSVNLGILTAVL, the protein stability index was found to be 3.83.

Regarding SFMPLVIKVTSATSVNLGILTANL, the protein stability index is 3.05.

Regarding SFMPLVIKVTSATSVNLGILTAAL, the protein stability index worked out at 2.74.

As for SFMPLVIKVTSATSVNLGILTACL, the protein stability index is 2.29.

With SFMPLVIKVTSATSVNLGILTAEL, the protein stability index was found to be 4.12.

For SFMPLVIKVTSATSVNLGILTAHL, the protein stability index was found to be 3.1.

For SFMPLVIKVTSATSVNLGILTAWL, the protein stability index was determined as 2.49.

Take SFMPLVIKVTSATSVNLGILTASL: the protein stability index was 2.11.

For SFMPLVIKVTSATSVNLGILTAIL, the protein stability index is 3.05.

Turning to SFMPLVIKVTSATSVNLGILTAYL, the protein stability index amounted to 3.03.

As to SFMPLVIKVTSATSVNLGILTAGL, the protein stability index worked out at 3.96.

SFMPLVIKVTSATSVNLGILTATL: the protein stability index was found to be 3.29.

On to SFMPLVIKVTSATSVNLGILTAML, for which the protein stability index stood at 1.83.

As for SFMPLVIKVTSATSVNLGILTAFL, the protein stability index was 2.91.

Regarding SFMPLVIKVTSATSVNLGILTALL, the protein stability index turned out to be 3.79.

As to SFMPLVIKVTSATSVNLGILMADL, the protein stability index was found to be 2.77.

For the variant SFMPLVIKVTSATSVNLGILYADL, the protein stability index is 3.83.

In the case of SFMPLVIKVTSATSVNLGILRADL, the protein stability index was found to be 3.24.

As to SFMPLVIKVTSATSVNLGILHADL, the protein stability index was 4.75.

With SFMPLVIKVTSATSVNLGILLADL, the protein stability index was 2.33.

Take SFMPLVIKVTSATSVNLGILQADL: the protein stability index is 2.79.

For SFMPLVIKVTSATSVNLGILKADL, the protein stability index was determined as 2.52.

SFMPLVIKVTSATSVNLGILDADL: the protein stability index was 2.61.

In the case of SFMPLVIKVTSATSVNLGILVADL, the protein stability index amounted to 2.54.

For SFMPLVIKVTSATSVNLGILPADL, the protein stability index was determined as 2.5.

For the variant SFMPLVIKVTSATSVNLGILGADL, the protein stability index came out at 2.24.

Consider SFMPLVIKVTSATSVNLGILFADL, for which the protein stability index was determined as 1.85.

As for SFMPLVIKVTSATSVNLGILSADL, the protein stability index was determined as 3.64.

In the case of SFMPLVIKVTSATSVNLGILEADL, the protein stability index amounted to 2.86.

In the case of SFMPLVIKVTSATSVNLGILNADL, the protein stability index stood at 1.87.

Turning to SFMPLVIKVTSATSVNLGILIADL, the protein stability index amounted to 3.26.

With SFMPLVIKVTSATSVNLGILWADL, the protein stability index was 2.7.

Take SFMPLVIKVTSATSVNLGILTYDL: the protein stability index stood at 3.41.

SFMPLVIKVTSATSVNLGILTRDL: the protein stability index is 2.35.

Consider SFMPLVIKVTSATSVNLGILTVDL, for which the protein stability index came to 3.18.

With SFMPLVIKVTSATSVNLGILTKDL, the protein stability index was 2.21.

Regarding SFMPLVIKVTSATSVNLGILTSDL, the protein stability index was found to be 2.88.

For SFMPLVIKVTSATSVNLGILTFDL, the protein stability index was found to be 2.92.

Consider SFMPLVIKVTSATSVNLGILTNDL, for which the protein stability index stood at 2.95.

As to SFMPLVIKVTSATSVNLGILTQDL, the protein stability index came out at 2.86.

As to SFMPLVIKVTSATSVNLGILTGDL, the protein stability index is 3.15.

Turning to SFMPLVIKVTSATSVNLGILTCDL, the protein stability index was found to be 4.09.

As for SFMPLVIKVTSATSVNLGILTDDL, the protein stability index was 2.67.

Turning to SFMPLVIKVTSATSVNLGILTLDL, the protein stability index was 2.58.

As to SFMPLVIKVTSATSVNLGILTTDL, the protein stability index came out at 3.93.

Consider SFMPLVIKVTSATSVNLGILTPDL, for which the protein stability index came to 3.07.

For SFMPLVIKVTSATSVNLGILTMDL, the protein stability index was 3.85.

For the variant SFMPLVIKVTSATSVNLGILTHDL, the protein stability index turned out to be 3.34.

With SFMPLVIKVTSATSVNLGILTIDL, the protein stability index was 4.

With SFMPLVIKVTSATSVNLGILTWDL, the protein stability index turned out to be 3.55.

As to SFMPLVIKVTSATSVNLGILTEDL, the protein stability index was 2.99.

SFMPLVIKVTSATSVNLGILTADK: the protein stability index came out at 2.4.

Turning to SFMPLVIKVTSATSVNLGILTADP, the protein stability index stood at 3.07.

On to SFMPLVIKVTSATSVNLGILTADY, for which the protein stability index came out at 4.32.

For the variant SFMPLVIKVTSATSVNLGILTADW, the protein stability index came out at 1.78.

On to SFMPLVIKVTSATSVNLGILTADV, for which the protein stability index is 2.43.

SFMPLVIKVTSATSVNLGILTADN: the protein stability index turned out to be 3.27.

Regarding SFMPLVIKVTSATSVNLGILTADA, the protein stability index is 3.11.

Consider SFMPLVIKVTSATSVNLGILTADS, for which the protein stability index is 2.87.

Regarding SFMPLVIKVTSATSVNLGILTADR, the protein stability index is 1.89.

Regarding SFMPLVIKVTSATSVNLGILTADI, the protein stability index worked out at 3.14.

In the case of SFMPLVIKVTSATSVNLGILTADE, the protein stability index amounted to 2.21.

For SFMPLVIKVTSATSVNLGILTADC, the protein stability index came out at 3.76.

On to SFMPLVIKVTSATSVNLGILTADF, for which the protein stability index worked out at 3.22.

As for SFMPLVIKVTSATSVNLGILTADH, the protein stability index was found to be 3.57.

SFMPLVIKVTSATSVNLGILTADQ: the protein stability index was determined as 2.79.

Turning to SFMPLVIKVTSATSVNLGILTADT, the protein stability index came to 2.24.

In the case of SFMPLVIKVTSATSVNLGILTADD, the protein stability index amounted to 1.55.

Turning to SFMPLVIKVTSATSVNLGILTADG, the protein stability index came out at 3.04.

With SFMPLVIKVTSATSVNLGILTADM, the protein stability index was found to be 3.01.

For the origin of these results see the supplement of paper PMC10567573.
